{"source": "patent US6258932", "about": "“Peptides that block viral infectivity and methods of use thereof” (Tripep AB, dated 2001)", "key": {"[1]": {"target": "HIV-1 major capsid protein (p24) (HIV-1) (UniProt P04591)"}, "[2]": {"target": "capsid protein of HIV-2 (HIV-2)"}, "[3]": {"target": "capsid protein of SIV (SIV)"}, "[4]": {"target": "HIV-1 major capsid protein (p24) (HIV-1) (UniProt P04591)", "remark": "listed apart in the source"}, "[5]": {"target": "HIV-1 major capsid protein (p24) (HIV-1) (UniProt P04591)", "remark": "listed apart in the source"}, "[6]": {"target": "HIV-1 major capsid protein (p24) (HIV-1) (UniProt P04591)", "remark": "listed apart in the source"}, "[7]": {"target": "HIV-1 major capsid protein (p24) (HIV-1) (UniProt P04591)", "remark": "listed apart in the source"}, "[8]": {"target": "HIV-1 major capsid protein (p24) (HIV-1) (UniProt P04591)", "experiment": "equilibrium dialysis of 10 µM recombinant protein against 27.5 µM 14C-GPG-NH2, scintillation counting; ratio to the dialysis buffer"}, "[9]": {"target": "T1, HIV-1 major capsid protein (p24) (HIV-1, UniProt P04591)", "experiment": "cell-based or functional assay"}, "[10]": {"target": "T1, HIV-1 major capsid protein (p24)", "experiment": "cell-based or functional assay", "remark": "listed apart in the source"}}, "note": "Ends that are not written are not given here.", "data": [{"molecule": "Gly-Pro-Gly-NH2 (peptide)", "values": [{"measurement": "Day 10 RT, HIV-1 (OD of reverse transcriptase activity in the supernatant of infected H9 cells); HIV-1 syncytia", "setting": "[1]", "value": 0.074, "unit": "OD"}, {"measurement": "Day 10 RT, HIV-2 (OD of reverse transcriptase activity in the supernatant of infected H9 cells)", "setting": "[2]", "value": 0.145, "unit": "OD"}, {"measurement": "Day 10 RT, SIV (OD of reverse transcriptase activity in the supernatant of infected H9 cells)", "setting": "[3]", "value": 0.103, "unit": "OD"}, {"measurement": "p24 antigen in the supernatant of HIV-1 infected H9 cells, day 7, reduction (%)", "setting": "[4]", "value": 100, "unit": "%"}, {"measurement": "p24 (pg/ml) in the supernatant of HIV-1 infected HUT78 cells, day 7, reduction (%)", "setting": "[5]", "value": 97, "unit": "%"}, {"measurement": "HIV-1 p24 (pg/ml) in the supernatant of PBMC infected with AZT- or Ritonavir-resistant HIV-1 isolates, 14 days post infection, 100 µM peptide", "setting": "[6]", "value": "< 500", "unit": "pg/mL"}, {"measurement": "p24 pg/ml in the supernatant of MT-2 cells infected with HIV-1 Bru wild type or the V3 loop GPG-deleted mutants mp8 and mp10, reduction %", "setting": "[7]", "value": 93, "unit": "%"}, {"measurement": "times buffer", "setting": "[8]", "value": 7.55, "unit": "times buffer"}]}, {"molecule": "Cys-Gln-Gly-NH2 (peptide)", "values": [{"measurement": "Day 10 RT, HIV-2 (OD of reverse transcriptase activity in the supernatant of infected H9 cells)", "setting": "[2]", "value": 0.296, "unit": "OD"}, {"measurement": "Day 10 RT, SIV (OD of reverse transcriptase activity in the supernatant of infected H9 cells)", "setting": "[3]", "value": 0.11, "unit": "OD"}]}, {"molecule": "Gly-Lys-Gly-NH2 (peptide)", "values": [{"measurement": "Day 10 RT, HIV-2 (OD of reverse transcriptase activity in the supernatant of infected H9 cells)", "setting": "[2]", "value": 0.147, "unit": "OD"}, {"measurement": "Day 10 RT, SIV (OD of reverse transcriptase activity in the supernatant of infected H9 cells)", "setting": "[3]", "value": 0.099, "unit": "OD"}]}, {"molecule": "Val-Gly-Gly-NH2", "note": "[Val-Gly-Gly-NH2]", "values": [{"measurement": "p24 (pg/ml) in the supernatant of HIV-1 infected HUT78 cells, day 7, 100 µM peptide, reduction (%)", "setting": "[9]", "value": 50, "unit": "%"}]}, {"molecule": "Lys-Ala-Leu-NH2", "note": "[KAL-NH2]", "values": [{"measurement": "Day 10 RT, HIV-1 (OD of reverse transcriptase activity in the supernatant of infected H9 cells); HIV-1 syncytia", "setting": "[10]", "value": 2.79, "unit": "OD"}]}, {"molecule": "Gly-Pro-Gln-NH2", "note": "[GPQ-NH2]", "values": [{"measurement": "Day 10 RT, HIV-1 (OD of reverse transcriptase activity in the supernatant of infected H9 cells); HIV-1 syncytia", "setting": "[10]", "value": 2.85, "unit": "OD"}]}, {"molecule": "Ala-Ser-Gly-NH2", "note": "[Ala-Ser-Gly-NH2]", "values": [{"measurement": "p24 (pg/ml) in the supernatant of HIV-1 infected HUT78 cells, day 7, 100 µM peptide, reduction (%)", "setting": "[9]", "value": 25, "unit": "%"}]}, {"molecule": "Ile-Leu-Lys-NH2", "note": "[ILK-NH2]", "values": [{"measurement": "Day 10 RT, HIV-1 (OD of reverse transcriptase activity in the supernatant of infected H9 cells); HIV-1 syncytia", "setting": "[10]", "value": 2.95, "unit": "OD"}]}, {"molecule": "Lys-Ala-Arg-NH2", "note": "[KAR-NH2]", "values": [{"measurement": "Day 10 RT, HIV-1 (OD of reverse transcriptase activity in the supernatant of infected H9 cells); HIV-1 syncytia", "setting": "[10]", "value": 2.93, "unit": "OD"}]}, {"molecule": "Ala-Arg-Val-NH2", "note": "[ARV-NH2]", "values": [{"measurement": "Day 10 RT, HIV-1 (OD of reverse transcriptase activity in the supernatant of infected H9 cells); HIV-1 syncytia", "setting": "[10]", "value": 2.83, "unit": "OD"}]}, {"molecule": "Leu-Lys-Ala-NH2", "note": "[LKA-NH2]", "values": [{"measurement": "Day 10 RT, HIV-1 (OD of reverse transcriptase activity in the supernatant of infected H9 cells); HIV-1 syncytia", "setting": "[10]", "value": 2.99, "unit": "OD"}]}, {"molecule": "Gly-Ala-Thr-NH2", "note": "[GAT-NH2]", "values": [{"measurement": "Day 10 RT, HIV-1 (OD of reverse transcriptase activity in the supernatant of infected H9 cells); HIV-1 syncytia", "setting": "[10]", "value": 2.8, "unit": "OD"}]}, {"molecule": "His-Lys-Ala-NH2", "note": "[HKA-NH2]", "values": [{"measurement": "Day 10 RT, HIV-1 (OD of reverse transcriptase activity in the supernatant of infected H9 cells); HIV-1 syncytia", "setting": "[10]", "value": 2.79, "unit": "OD"}]}, {"molecule": "Ala-Cys-Gln-NH2", "note": "[ACQ-NH2]", "values": [{"measurement": "Day 10 RT, HIV-1 (OD of reverse transcriptase activity in the supernatant of infected H9 cells); HIV-1 syncytia", "setting": "[10]", "value": 2.83, "unit": "OD"}]}, {"molecule": "Lys-Gln-Gly-NH2", "note": "[Lys-Gln-Gly-NH2]", "values": [{"measurement": "p24 (pg/ml) in the supernatant of HIV-1 infected HUT78 cells, day 7, 100 µM peptide, reduction (%)", "setting": "[9]", "value": 99, "unit": "%"}]}, {"molecule": "Gly-Val-Gly-NH2", "note": "[Gly-Val-Gly-NH2]", "values": [{"measurement": "p24 (pg/ml) in the supernatant of HIV-1 infected HUT78 cells, day 7, 100 µM peptide, reduction (%)", "setting": "[9]", "value": 25, "unit": "%"}]}, {"molecule": "Ala-Leu-Gly-NH2", "note": "[Ala-Leu-Gly-NH2]", "values": [{"measurement": "p24 (pg/ml) in the supernatant of HIV-1 infected HUT78 cells, day 7, 100 µM peptide, reduction (%)", "setting": "[9]", "value": 100, "unit": "%"}]}, {"molecule": "Gly-His-Lys-NH2", "note": "[GHK-NH2]", "values": [{"measurement": "Day 10 RT, HIV-1 (OD of reverse transcriptase activity in the supernatant of infected H9 cells); HIV-1 syncytia", "setting": "[10]", "value": 3.01, "unit": "OD"}]}, {"molecule": "Arg-Gln-Gly-NH2", "note": "[Arg-Gln-Gly-NH2]", "values": [{"measurement": "p24 (pg/ml) in the supernatant of HIV-1 infected HUT78 cells, day 7, 100 µM peptide, reduction (%)", "setting": "[9]", "value": 99, "unit": "%"}]}, {"molecule": "Ser-Leu-Gly-NH2", "note": "[Ser-Leu-Gly-NH2]", "values": [{"measurement": "p24 (pg/ml) in the supernatant of HIV-1 infected HUT78 cells, day 7, 100 µM peptide, reduction (%)", "setting": "[9]", "value": 99, "unit": "%"}]}, {"molecule": "Ser-Pro-Thr-NH2", "note": "[Ser-Pro-Thr-NH2]", "values": [{"measurement": "p24 (pg/ml) in the supernatant of HIV-1 infected HUT78 cells, day 7, 100 µM peptide, reduction (%)", "setting": "[9]", "value": 25, "unit": "%"}]}]}
